Assay results from patent US20260275312, “CRISPR NUCLEASE POLYPEPTIDES AND GENE EDITING SYSTEMS COMPRISING SUCH” (ARBOR BIOTECHNOLOGIES, INC., published 2026).

What was measured:
[1] = molecular target: T1, Nuclease H D912R (synthetic construct, D912R); assay: cell_activity; HEK293T; PAM AAC; details: tags: N-term SV40 NLS, XTEN linker + C-term nucleoplasmin NLS
T1 chain: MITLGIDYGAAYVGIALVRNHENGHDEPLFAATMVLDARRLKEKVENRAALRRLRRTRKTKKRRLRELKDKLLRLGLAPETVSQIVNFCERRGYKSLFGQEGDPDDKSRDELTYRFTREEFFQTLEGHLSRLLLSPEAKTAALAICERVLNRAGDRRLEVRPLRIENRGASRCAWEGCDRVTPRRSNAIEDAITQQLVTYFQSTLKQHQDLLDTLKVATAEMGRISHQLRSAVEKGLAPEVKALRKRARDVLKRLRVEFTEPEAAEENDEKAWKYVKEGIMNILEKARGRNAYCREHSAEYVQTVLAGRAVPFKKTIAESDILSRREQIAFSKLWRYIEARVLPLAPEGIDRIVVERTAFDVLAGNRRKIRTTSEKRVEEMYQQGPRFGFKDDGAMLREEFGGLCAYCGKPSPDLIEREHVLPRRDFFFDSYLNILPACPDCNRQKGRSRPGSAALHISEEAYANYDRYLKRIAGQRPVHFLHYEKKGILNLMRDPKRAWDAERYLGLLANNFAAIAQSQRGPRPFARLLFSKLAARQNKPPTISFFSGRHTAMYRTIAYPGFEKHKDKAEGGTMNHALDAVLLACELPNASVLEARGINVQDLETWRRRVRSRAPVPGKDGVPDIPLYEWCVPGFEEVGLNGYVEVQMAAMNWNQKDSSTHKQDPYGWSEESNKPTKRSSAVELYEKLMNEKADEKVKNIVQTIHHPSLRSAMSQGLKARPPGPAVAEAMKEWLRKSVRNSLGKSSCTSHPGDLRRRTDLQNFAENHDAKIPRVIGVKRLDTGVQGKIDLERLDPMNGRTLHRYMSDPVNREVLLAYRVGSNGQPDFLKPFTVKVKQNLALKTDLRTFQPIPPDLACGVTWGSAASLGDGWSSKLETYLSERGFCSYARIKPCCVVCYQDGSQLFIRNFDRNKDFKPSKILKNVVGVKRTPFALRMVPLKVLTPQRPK
Method: (§1) HEK293T cells were transfected with plasmids expressing the Nuclease H polypeptides and the gRNAs provided herein following the methods provided in Example 1 above. Gene editing efficiencies were determined by NGS following the methods also provided in Example 1. The NGS results were analyzed also following the methods provided in Example 1 above.
(§2) Indel ratios, referring to the percentage of NGS reads comprising indels, were calculated for the reference and for each variant. The indel ratios used for fold change calculations were the average of two technical replicates. To then calculate fold change in indel ratios, the indel ratio for each variant was divided by the indel ratio for the reference. […] Numbering is relative to the reference nuclease of SEQ ID NO: 64 (i.e., without an NLS).

[2] = molecular target: T2, Nuclease H L54R (synthetic construct, L54R); assay: cell_activity; HEK293T; PAM AAC; details: tags: N-term SV40 NLS, XTEN linker + C-term nucleoplasmin NLS
T2 chain: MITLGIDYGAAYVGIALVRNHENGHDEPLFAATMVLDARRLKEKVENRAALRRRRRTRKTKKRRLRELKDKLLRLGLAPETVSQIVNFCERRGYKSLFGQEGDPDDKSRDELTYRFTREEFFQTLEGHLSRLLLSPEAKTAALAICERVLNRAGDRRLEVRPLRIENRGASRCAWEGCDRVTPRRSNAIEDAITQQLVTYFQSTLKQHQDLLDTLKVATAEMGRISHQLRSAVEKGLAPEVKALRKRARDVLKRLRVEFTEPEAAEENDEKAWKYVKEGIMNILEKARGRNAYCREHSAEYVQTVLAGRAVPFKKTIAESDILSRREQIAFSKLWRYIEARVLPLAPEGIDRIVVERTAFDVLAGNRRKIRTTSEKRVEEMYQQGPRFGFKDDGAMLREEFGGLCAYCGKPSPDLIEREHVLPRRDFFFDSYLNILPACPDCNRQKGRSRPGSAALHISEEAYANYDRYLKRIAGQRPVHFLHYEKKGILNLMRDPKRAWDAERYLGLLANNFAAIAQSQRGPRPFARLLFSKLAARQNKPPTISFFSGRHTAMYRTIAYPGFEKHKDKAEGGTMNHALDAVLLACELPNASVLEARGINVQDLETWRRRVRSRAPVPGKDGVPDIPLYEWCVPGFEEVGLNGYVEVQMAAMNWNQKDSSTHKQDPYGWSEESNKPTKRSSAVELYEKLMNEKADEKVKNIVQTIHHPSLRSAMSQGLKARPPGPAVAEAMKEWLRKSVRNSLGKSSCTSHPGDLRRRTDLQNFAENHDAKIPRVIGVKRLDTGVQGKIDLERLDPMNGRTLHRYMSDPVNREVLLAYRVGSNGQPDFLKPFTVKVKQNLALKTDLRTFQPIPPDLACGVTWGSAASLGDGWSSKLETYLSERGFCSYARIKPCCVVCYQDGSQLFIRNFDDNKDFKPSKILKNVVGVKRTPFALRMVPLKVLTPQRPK
Method: as §1, §2

B1: H AAVS1-T5 RNA guide ; AAVS1-T5 target (H) (ssRNA ; dsDNA)
RNA: GGCUAUAAUCCAUGCUGACCGUUUCAAUCAACCUGAUCUCUCUGCUUGCGCUGCAGGCUUCAUAAGAUCAGUAGGUUGAAAAGAGCAUCCGUCCGACAUGCACUCCGGGAUGGGGCAGUCCCGGCUCUUGCGGUUCCCGAUGCAGUUAUGUGUCCGCGGAACACGGUGUCGGACACGUCGCAAGACAGGAUGUGAGCCCAUUAUCCACAUUAGGAUCAAUGUACGCAUGAGCAGUCCGCAAUGCCGGGGACGCU
DNA 1: GGCTATAATCCATGCTGACC
DNA 2: GGTCAGCATGGATTATAGCC
fold change in indel ratio vs reference [1]: 4.21 fold indel vs reference | fold change in indel ratio vs reference [2]: 16.6 fold indel vs reference
